# Values of other authors, collected in paper PMC6194691.
# Biological target: transferrin receptor (Rattus norvegicus) (UniProt Q99376)
# Sequence of UniProt Q99376 (Q99376 whole entry): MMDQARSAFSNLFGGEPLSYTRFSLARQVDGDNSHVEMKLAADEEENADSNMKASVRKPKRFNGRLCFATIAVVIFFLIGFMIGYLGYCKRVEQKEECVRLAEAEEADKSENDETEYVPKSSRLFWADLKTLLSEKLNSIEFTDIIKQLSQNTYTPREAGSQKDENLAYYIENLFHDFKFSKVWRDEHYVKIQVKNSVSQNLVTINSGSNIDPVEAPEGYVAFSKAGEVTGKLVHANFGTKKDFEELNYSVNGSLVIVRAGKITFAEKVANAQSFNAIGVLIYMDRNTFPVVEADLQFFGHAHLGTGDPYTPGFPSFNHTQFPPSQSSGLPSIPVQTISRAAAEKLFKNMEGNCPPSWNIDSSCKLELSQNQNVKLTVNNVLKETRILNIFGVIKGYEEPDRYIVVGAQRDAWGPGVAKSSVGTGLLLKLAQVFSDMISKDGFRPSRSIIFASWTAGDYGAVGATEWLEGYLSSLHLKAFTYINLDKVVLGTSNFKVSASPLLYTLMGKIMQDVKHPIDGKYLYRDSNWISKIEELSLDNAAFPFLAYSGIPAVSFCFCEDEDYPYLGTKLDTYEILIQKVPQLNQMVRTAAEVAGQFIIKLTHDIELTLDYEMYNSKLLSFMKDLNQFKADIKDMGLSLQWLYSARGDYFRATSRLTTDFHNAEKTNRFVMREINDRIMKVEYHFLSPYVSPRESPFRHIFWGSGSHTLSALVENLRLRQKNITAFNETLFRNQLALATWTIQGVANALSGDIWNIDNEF
substance,measurement,value
apo-transferrin (from UniProt P12346),Kd,< 0.03 µM
